Experimental data reported in patent publication US20220064254A1 (Janssen / Centocor, published 2022).

Tests used:
[1] = biological target: T1, soluble human Kallikrein-2 (hK2) (human, UniProt P20151 25-261); experiment: SPR; antibody captured on anti-Fc sensor chip, soluble hK2 injected; 1:1 Langmuir fit, KD = koff/kon
T1 construct: The construct used in SPR, ELISA and MSD screening is not defined; the stated signal peptide (1-18) is left out, and the pro-peptide (19-24) may or may not have been present; also called KLK2; soluble hK2
T1 sequence (P20151 25-261): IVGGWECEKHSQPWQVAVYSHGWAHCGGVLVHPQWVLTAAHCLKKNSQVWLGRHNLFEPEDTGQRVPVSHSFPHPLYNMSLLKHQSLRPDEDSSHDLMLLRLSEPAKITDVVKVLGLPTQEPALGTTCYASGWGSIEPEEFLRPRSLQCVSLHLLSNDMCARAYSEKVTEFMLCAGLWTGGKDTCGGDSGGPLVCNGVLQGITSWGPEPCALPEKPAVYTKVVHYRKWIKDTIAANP
Protocol: Affinity of selected hK2 antibodies for soluble hK2 was measured by surface plasmon resonance (SPR). […] Antibodies were captured on a sensor chip coated with an anti-Fc antibody followed by injection of soluble hK2 at various concentrations and specified association and dissociation times. Post dissociation, the surface was regenerated with an appropriate solution to prepare for the next interaction. Kinetic information (on-rate and off-rate constants) were extracted by fitting sensorgrams to the 1:1 Langmuir model. Binding affinity (KD) are reported as the ratio of rate constants (koff/kₒₙ).

[2] = biological target: T2, biotinylated recombinant hK2 protein (human, UniProt P20151 25-261, biotin label (EZ-Link Sulfo-NHS-LC-Biotin)); experiment: flow cytometry; primary human T cells lentivirally transduced with the CAR (MOI 3), day 14, stained with biotinylated hK2 (1 µg/ml) then streptavidin-PE; UTD control gate 0.086
T2 construct: In-house biotin-labelled recombinant hK2 used as the flow cytometry reagent; also called biotinylated hK2; Biotin-Hk2 protein
T2 sequence (P20151 25-261): as above
Protocol: The cells were resuspended in 100 μl of Biotin labeled hK2 (1 μg/ml diluted in FACS buffer) and incubated on ice for 30 minutes. 100 μl of FACS buffer was added, and spun washed at 4° C. The spin wash was repeated after adding another 200 μl FACS buffer. Staining with 100 μl of master solution containing secondary antibody SA-PE (1:250), live dead fixable stain (1:500), αCD3, αCD4 and αCD8 antibodies was performed on ice for 30 minutes. 100 μl FACS buffer was added and spun wash at 4° C., discarded and resuspended in 200 μl FACS buffer before spin washing at 4° C. The samples were resuspended in 100 μl FACS Buffer before analyzing by flow cytometry.

[3] = biological target: T2, biotinylated recombinant hK2 protein; experiment: flow cytometry; JNL (Jurkat NFAT-luciferase) cells transduced with the CAR, stained with biotinylated hK2 then streptavidin-PE; UTD control gate 0.021
Protocol: Lentiviral transduction was performed as follows. JNL cells were harvested and resuspended to 1E6/ml. 500 μl of JNL cells and lentiviral virus were added at a MOI of 3, and mixed by pipetting up and down. The mixture was incubate in a 37° C. incubator for 24 hours. 500 μl JNL media was added to each well, with culturing continued in a 37° C. incubator. The cells were transferred to a T25 flask on day 4. At days 5-6, transduction validation was performed. […] The JNL cells were maintained at 5×10⁵/ml until enough cells were obtained to either freeze down or use in the assay.

Kd [1] [nM] | percent of CD3+ T cells in the PE-positive gate (hK2 CAR) [2] [%] | percent of cells in the PE-positive gate (hK2 CAR) [3] [%] | Binder
34.3 | – | – | KL2B413 (scFv) (scFv, V domains shown) VH: EVQLVESGGGLVQPGGSLRLSCAASGFTFSSYWMTWVRQAPGKGLEWVANIKQDGSERYYVDSVKGRFTISRDNAKNSLYLQMNSLRAEDTAVYYCARDQNYDILTGHYGMDVWGQGTTVTVSS VL: EIVLTQSPSFLSASVGDRVTITCRASQGISSYLSWYQQKPGKAPKLLIYATSTLQSGVPSRFSGSGSGTEFTLTISSLQPEDFATYYCQQLNSYPRTFGQGTKVEIK
– | 42.7 | 64.3 | CAR4 (HL_HCG5_LCB7_20AA) (other, also called construct 4; pDR000083437) QVQLQESGPGLVKPSDTLSLTCAVSGNSITSDYAWNWIRQFPGKGLEWMGYISYSGSTTYNPSLKSRVTISRDTSKNQFSLKLSSVTPVDTAVYYCATGYYYGSGFWGQGTLVTVSSGGSEGKSSGSGSESKSTGGSDIVLTQSPDSLAVSLGERATINCKASESVEYFGTSLMHWYQQKPGQPPKLLIYAASNRESGVPDRFSGSGSGTDFTLTISSVQAEDVAVYYCQQTRKVPYTFGQGTKLEIKTSTPAPRPPTPAPTIASQPLSLRPEACRPAAGGAVHTRGLDFACDIYIWAPLAGTCGVLLLSLVITLYCKRGRKKLLYIFKQPFMRPVQTTQEEDGCSCRFPEEEEGGCELRVKFSRSADAPAYKQGQNQLYNELNLGRREEYDVLDKRRGRDPEMGGKPRRKNPQEGLYNELQKDKMAEAYSEIGMKGERRRGKGHDGLYQGLSTATKDTYDALHMQALPPR
– | 20 | 61.9 | CAR1 (HL_HCG5_LCD6_20AA) (other, also called construct 1; pDR000083431) QVQLQESGPGLVKPSDTLSLTCAVSGNSITSDYAWNWIRQFPGKGLEWMGYISYSGSTTYNPSLKSRVTISRDTSKNQFSLKLSSVTPVDTAVYYCATGYYYGSGFWGQGTLVTVSSGGSEGKSSGSGSESKSTGGSDIVLTQSPDSLAVSLGERATINCKASESVEYFGTSLMHWYQQKPGQPPKLLIYAASNRESGVPDRFSGSGSGTDFTLTIQSVQAEDVSVYFCQQTRKVPYTFGQGTKLEIKTSTPAPRPPTPAPTIASQPLSLRPEACRPAAGGAVHTRGLDFACDIYIWAPLAGTCGVLLLSLVITLYCKRGRKKLLYIFKQPFMRPVQTTQEEDGCSCRFPEEEEGGCELRVKFSRSADAPAYKQGQNQLYNELNLGRREEYDVLDKRRGRDPEMGGKPRRKNPQEGLYNELQKDKMAEAYSEIGMKGERRRGKGHDGLYQGLSTATKDTYDALHMQALPPR
– | 29.4 | 64.3 | CAR3 (HL_HCF3_LCB7_20AA) (other, also called construct 3; pDR000083436) QVQLQESGPGLVKPSDTLSLTCAVSGNSITSDYAWNWIRQFPGKGLEWIGYISYSGSTTYNPSLKSRVTISRDTSKNQFSLKLSSVTPVDTAVYYCATGYYYGSGFWGQGTLVTVSSGGSEGKSSGSGSESKSTGGSDIVLTQSPDSLAVSLGERATINCKASESVEYFGTSLMHWYQQKPGQPPKLLIYAASNRESGVPDRFSGSGSGTDFTLTISSVQAEDVAVYYCQQTRKVPYTFGQGTKLEIKTSTPAPRPPTPAPTIASQPLSLRPEACRPAAGGAVHTRGLDFACDIYIWAPLAGTCGVLLLSLVITLYCKRGRKKLLYIFKQPFMRPVQTTQEEDGCSCRFPEEEEGGCELRVKFSRSADAPAYKQGQNQLYNELNLGRREEYDVLDKRRGRDPEMGGKPRRKNPQEGLYNELQKDKMAEAYSEIGMKGERRRGKGHDGLYQGLSTATKDTYDALHMQALPPR
– | 23.6 | 65.4 | CAR2 (HL_HCG5_LCHumanized_20AA) (other, also called construct 2) QVQLQESGPGLVKPSDTLSLTCAVSGNSITSDYAWNWIRQFPGKGLEWMGYISYSGSTTYNPSLKSRVTISRDTSKNQFSLKLSSVTPVDTAVYYCATGYYYGSGFWGQGTLVTVSSGGSEGKSSGSGSESKSTGGSDIVLTQSPDSLAVSLGERATINCKASESVEYFGTSLMHWYQQKPGQPPKLLIYAASNRESGVPDRFSGSGSGTDFTLTISSLQAEDVAVYYCQQTRKVPYTFGQGTKLEIKTSTPAPRPPTPAPTIASQPLSLRPEACRPAAGGAVHTRGLDFACDIYIWAPLAGTCGVLLLSLVITLYCKRGRKKLLYIFKQPFMRPVQTTQEEDGCSCRFPEEEEGGCELRVKFSRSADAPAYKQGQNQLYNELNLGRREEYDVLDKRRGRDPEMGGKPRRKNPQEGLYNELQKDKMAEAYSEIGMKGERRRGKGHDGLYQGLSTATKDTYDALHMQALPPR
– | 30.6 | 68 | CAR9 (LH_LCB7_HCG5_20AA) (other, also called construct 9; pDR000083444) DIVLTQSPDSLAVSLGERATINCKASESVEYFGTSLMHWYQQKPGQPPKLLIYAASNRESGVPDRFSGSGSGTDFTLTISSVQAEDVAVYYCQQTRKVPYTFGQGTKLEIKGGSEGKSSGSGSESKSTGGSQVQLQESGPGLVKPSDTLSLTCAVSGNSITSDYAWNWIRQFPGKGLEWMGYISYSGSTTYNPSLKSRVTISRDTSKNQFSLKLSSVTPVDTAVYYCATGYYYGSGFWGQGTLVTVSSTSTPAPRPPTPAPTIASQPLSLRPEACRPAAGGAVHTRGLDFACDIYIWAPLAGTCGVLLLSLVITLYCKRGRKKLLYIFKQPFMRPVQTTQEEDGCSCRFPEEEEGGCELRVKFSRSADAPAYKQGQNQLYNELNLGRREEYDVLDKRRGRDPEMGGKPRRKNPQEGLYNELQKDKMAEAYSEIGMKGERRRGKGHDGLYQGLSTATKDTYDALHMQALPPR
– | 17.9 | 66.4 | CAR5 (LH_LCD6_HCG5_20AA) (other, also called construct 5; pDR000083438) DIVLTQSPDSLAVSLGERATINCKASESVEYFGTSLMHWYQQKPGQPPKLLIYAASNRESGVPDRFSGSGSGTDFTLTIQSVQAEDVSVYFCQQTRKVPYTFGQGTKLEIKGGSEGKSSGSGSESKSTGGSQVQLQESGPGLVKPSDTLSLTCAVSGNSITSDYAWNWIRQFPGKGLEWMGYISYSGSTTYNPSLKSRVTISRDTSKNQFSLKLSSVTPVDTAVYYCATGYYYGSGFWGQGTLVTVSSTSTPAPRPPTPAPTIASQPLSLRPEACRPAAGGAVHTRGLDFACDIYIWAPLAGTCGVLLLSLVITLYCKRGRKKLLYIFKQPFMRPVQTTQEEDGCSCRFPEEEEGGCELRVKFSRSADAPAYKQGQNQLYNELNLGRREEYDVLDKRRGRDPEMGGKPRRKNPQEGLYNELQKDKMAEAYSEIGMKGERRRGKGHDGLYQGLSTATKDTYDALHMQALPPR
– | 21.5 | 66.3 | CAR8 (LH_LCB7_HCF3_20AA) (other, also called construct 8; pDR000083443) DIVLTQSPDSLAVSLGERATINCKASESVEYFGTSLMHWYQQKPGQPPKLLIYAASNRESGVPDRFSGSGSGTDFTLTISSVQAEDVAVYYCQQTRKVPYTFGQGTKLEIKGGSEGKSSGSGSESKSTGGSQVQLQESGPGLVKPSDTLSLTCAVSGNSITSDYAWNWIRQFPGKGLEWIGYISYSGSTTYNPSLKSRVTISRDTSKNQFSLKLSSVTPVDTAVYYCATGYYYGSGFWGQGTLVTVSSTSTPAPRPPTPAPTIASQPLSLRPEACRPAAGGAVHTRGLDFACDIYIWAPLAGTCGVLLLSLVITLYCKRGRKKLLYIFKQPFMRPVQTTQEEDGCSCRFPEEEEGGCELRVKFSRSADAPAYKQGQNQLYNELNLGRREEYDVLDKRRGRDPEMGGKPRRKNPQEGLYNELQKDKMAEAYSEIGMKGERRRGKGHDGLYQGLSTATKDTYDALHMQALPPR
– | 35 | 71.9 | CAR7 (LH_LCHumanized_HCG5_20AA) (other, also called construct 7; pDR000083441) DIVLTQSPDSLAVSLGERATINCKASESVEYFGTSLMHWYQQKPGQPPKLLIYAASNRESGVPDRFSGSGSGTDFTLTISSLQAEDVAVYYCQQTRKVPYTFGQGTKLEIKGGSEGKSSGSGSESKSTGGSQVQLQESGPGLVKPSDTLSLTCAVSGNSITSDYAWNWIRQFPGKGLEWMGYISYSGSTTYNPSLKSRVTISRDTSKNQFSLKLSSVTPVDTAVYYCATGYYYGSGFWGQGTLVTVSSTSTPAPRPPTPAPTIASQPLSLRPEACRPAAGGAVHTRGLDFACDIYIWAPLAGTCGVLLLSLVITLYCKRGRKKLLYIFKQPFMRPVQTTQEEDGCSCRFPEEEEGGCELRVKFSRSADAPAYKQGQNQLYNELNLGRREEYDVLDKRRGRDPEMGGKPRRKNPQEGLYNELQKDKMAEAYSEIGMKGERRRGKGHDGLYQGLSTATKDTYDALHMQALPPR
– | 27.8 | 70.3 | CAR6 (LH_LCHumanized_HCF3_20AA) (other, also called construct 6; pDR000083440) DIVLTQSPDSLAVSLGERATINCKASESVEYFGTSLMHWYQQKPGQPPKLLIYAASNRESGVPDRFSGSGSGTDFTLTISSLQAEDVAVYYCQQTRKVPYTFGQGTKLEIKGGSEGKSSGSGSESKSTGGSQVQLQESGPGLVKPSDTLSLTCAVSGNSITSDYAWNWIRQFPGKGLEWIGYISYSGSTTYNPSLKSRVTISRDTSKNQFSLKLSSVTPVDTAVYYCATGYYYGSGFWGQGTLVTVSSTSTPAPRPPTPAPTIASQPLSLRPEACRPAAGGAVHTRGLDFACDIYIWAPLAGTCGVLLLSLVITLYCKRGRKKLLYIFKQPFMRPVQTTQEEDGCSCRFPEEEEGGCELRVKFSRSADAPAYKQGQNQLYNELNLGRREEYDVLDKRRGRDPEMGGKPRRKNPQEGLYNELQKDKMAEAYSEIGMKGERRRGKGHDGLYQGLSTATKDTYDALHMQALPPR
– | 20.1 | 60 | CAR10 (LH_LCD6_HCF3_20AA) (other, also called construct 10; pDR000083446) DIVLTQSPDSLAVSLGERATINCKASESVEYFGTSLMHWYQQKPGQPPKLLIYAASNRESGVPDRFSGSGSGTDFTLTIQSVQAEDVSVYFCQQTRKVPYTFGQGTKLEIKGGSEGKSSGSGSESKSTGGSQVQLQESGPGLVKPSDTLSLTCAVSGNSITSDYAWNWIRQFPGKGLEWIGYISYSGSTTYNPSLKSRVTISRDTSKNQFSLKLSSVTPVDTAVYYCATGYYYGSGFWGQGTLVTVSSTSTPAPRPPTPAPTIASQPLSLRPEACRPAAGGAVHTRGLDFACDIYIWAPLAGTCGVLLLSLVITLYCKRGRKKLLYIFKQPFMRPVQTTQEEDGCSCRFPEEEEGGCELRVKFSRSADAPAYKQGQNQLYNELNLGRREEYDVLDKRRGRDPEMGGKPRRKNPQEGLYNELQKDKMAEAYSEIGMKGERRRGKGHDGLYQGLSTATKDTYDALHMQALPPR
